Measurements reported in the supplement of paper PMC10724198.

Key:
Saccharomyces cerevisiae [1] = assay: protein stability index of tFT-peptide fusion in wild type (PSI (0-1 scale)); higher = more stable (slower turnover); conditions: genetic background: wild type
Procedure: (§1)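 MPS profiling in S. cerevisiae of two library types built from selected 12-aa C-degron peptides (IN1, IN2, LN1, LN3, VN2, R1-R5, W1-W3, Atg1 and Rpa12 C-termini): saturation mutagenesis libraries and C-terminal +1 capping libraries (13 aa). Each peptide is fused to the C-terminus of a sfGFP-mCherry timer, after a GGGS linker. Cells are FACS-sorted into 8 mCherry/sfGFP bins and sequenced. PSI runs from 0 (unstable) to 1 (stable), measured once in wild type and in the das1Δ or doa10Δ background.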

Saccharomyces cerevisiae [2] = assay: protein stability index of tFT-peptide fusion in deletion strain of DAS1 (PSI (0-1 scale)); higher = more stable (slower turnover)
Procedure: as §1
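Throughout, for protein stability index of tFT-peptide fusion in deletion strain of DAS1: PSI is a weighted mean of each variant's read distribution over the sorted stability bins, computed only for variants having over 10 reads in total.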
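Throughout, for protein stability index of tFT-peptide fusion in wild type: PSI derived as read-weighted mean over the 8 sorting bins, only variants exceeding 10 total reads kept, mCherry placed adjacent to the peptide and sfGFP distal.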

Sequence | protein stability index (Saccharomyces cerevisiae [1]) | protein stability index (Saccharomyces cerevisiae [2])
KKHKKGQKQKIR | 0.676 | 0.595
FKMRWTFRYWVN | 0.119 | 0.735
ARWRVGLWRGDS | 0.667 | 0.688
PDKRNHEIKLLN | 0.447 | 0.596
PDKRNRLIKLLN | 0.141 | 0.592
LVVRLSCVACIN | 0.0177 | 0.0347
LKILRQKANHQN | 0.373 | 0.688
VRGAVGGWRLIG | 0.146 | 0.674
LKILRQKMNHQNV | 0.669 | 0.662
LVCYLSCVACIN | 0.0123 | 0.0279
LKILRQKMNYQN | 0.219 | 0.657
LVVYLSCVACINR | 0.0215 | 0.034
LVVYLSCVACINC | 0.0649 | 0.0918
FSMRMTFRYWVN | 0.0474 | 0.464
LVTYLSCVACIN | 0.0357 | 0.167
KKHKKGQKQKINI | 0.649 | 0.661
LRVYLSCVACIN | 0.0194 | 0.121
FLMRWTFRYWVN | 0.0449 | 0.342
KKHKRGQKQKIN | 0.0579 | 0.617
CTSCGYKFRTNNQ | 0.681 | 0.673
ARWRVGLWRQAS | 0.0958 | 0.678
LVVYLSCGACIN | 0.283 | 0.3
KKHDKGQKQKIN | 0.0762 | 0.587
PSLAASFWRVQG | 0.155 | 0.672

Sequence | protein stability index (Saccharomyces cerevisiae [1]) | protein stability index (Saccharomyces cerevisiae [2])
VRGAVDGWRLVG | 0.156 | 0.67
ARWRVGLHRGAS | 0.63 | 0.685
LVVYLSCVACINW | 0.0246 | 0.0403
FSMRWTFRYAVN | 0.158 | 0.585
MTSCGYKFRTNN | 0.212 | 0.688
RLIQPLPVQGLN | 0.659 | 0.739
PSLAASFWRDVG | 0.645 | 0.695
ARWRVGLWLGAS | 0.467 | 0.618
LVVYLSCVACIL | 0.0189 | 0.032
FSMRWTFVYWVN | 0.0513 | 0.327
PSLAPSFWRVVG | 0.136 | 0.682
RLVQPLPVQFLN | 0.0538 | 0.628
ARWRVGLCRGAS | 0.657 | 0.671
PSLAASFWAVVG | 0.601 | 0.686
PDKRNHLIKALN | 0.252 | 0.589
LVVYLFCVACIN | 0.0137 | 0.0277
KKHKKGQKQKWN | 0.305 | 0.587
VRGAVGAWRLVG | 0.144 | 0.704
CTSCGHKFRTNN | 0.256 | 0.706
LVVYLSCVACIA | 0.0168 | 0.0258
CTSCGYKFRSNN | 0.508 | 0.715
PSLAASFMRVVG | 0.531 | 0.681
KKHVKGQKQKIN | 0.0752 | 0.606
CTSCGYKFRTNNL | 0.723 | 0.715

Sequence | protein stability index (Saccharomyces cerevisiae [1]) | protein stability index (Saccharomyces cerevisiae [2])
PDKRNHLIKLLW | 0.578 | 0.586
CTSCGYKFRTNI | 0.601 | 0.701
PDKNNHLIKLLN | 0.242 | 0.757
PSLAASLWRVVG | 0.133 | 0.673
PDKRNHLINLLN | 0.113 | 0.605
RLIQPLPVQFLNP | 0.65 | 0.664
CKHKKGQKQKIN | 0.0815 | 0.568
VRGIVGGWRLVG | 0.171 | 0.682
PYKRNHLIKLLN | 0.141 | 0.6
KKHKKGQKDKIN | 0.652 | 0.63
LKILRQKMNFQN | 0.225 | 0.674
PDKRNHLIKLTN | 0.292 | 0.568
PSLARSFWRVVG | 0.293 | 0.7
PKKRNHLIKLLN | 0.149 | 0.596
PSLAASFWRVVY | 0.636 | 0.682
KKHKKGQKQKGN | 0.61 | 0.616
FSMRWTFRYWVNA | 0.163 | 0.496
VRRAVGGWRLVG | 0.145 | 0.695
FSMNWTFRYWVN | 0.0654 | 0.496
LVVYLSCVYCIN | 0.0441 | 0.158
VRGAVGGWWLVG | 0.455 | 0.669
VRGAVGVWRLVG | 0.16 | 0.665
RLIQPLPVQRLN | 0.0805 | 0.643
PSNAASFWRVVG | 0.162 | 0.686

Sequence | protein stability index (Saccharomyces cerevisiae [1]) | protein stability index (Saccharomyces cerevisiae [2])
CTMCGYKFRTNN | 0.236 | 0.69
ARWRVGLWRIAS | 0.088 | 0.677
FSMRWTFGYWVN | 0.0637 | 0.404
CTSCGYKFLTNN | 0.332 | 0.696
RLIQPLPVQFSN | 0.591 | 0.601
LVVYLSCVAPIN | 0.457 | 0.449
NRGAVGGWRLVG | 0.164 | 0.665
VRGAVGGWRLEG | 0.642 | 0.69
PDKRNHLIKLLT | 0.205 | 0.622
LKILRQKMVHQN | 0.19 | 0.657
PDKRNHLIKLLNF | 0.176 | 0.67
LKIDRQKMNHQN | 0.241 | 0.676
KKHKKHQKQKIN | 0.0431 | 0.521
ARWRVGLWRGMS | 0.202 | 0.663
CTSCGSKFRTNN | 0.549 | 0.692
RLIQPWPVQFLN | 0.0573 | 0.545
RLIQPLQVQFLN | 0.0288 | 0.63
PDKENHLIKLLN | 0.265 | 0.602
LKILRQNMNHQN | 0.255 | 0.667
RLIQPLPVRFLN | 0.0593 | 0.6
KKHKGGQKQKIN | 0.0809 | 0.584
ARWRVGLWRGASE | 0.663 | 0.666
PSLAASVWRVVG | 0.162 | 0.661
KKHKKGQKQKINV | 0.647 | 0.657

Sequence | protein stability index (Saccharomyces cerevisiae [1]) | protein stability index (Saccharomyces cerevisiae [2])
CTSCGYKFRTWN | 0.288 | 0.727
ARWRVGLWYGAS | 0.603 | 0.718
CTSCGYKFQTNN | 0.175 | 0.723
CTSCPYKFRTNN | 0.261 | 0.666
PRKRNHLIKLLN | 0.141 | 0.633
PDKRNHLFKLLN | 0.112 | 0.609
RLIQPLPVQFLNN | 0.432 | 0.663
KKHKKGQKQKINY | 0.643 | 0.663
EKHKKGQKQKIN | 0.178 | 0.613
LVVYLSCVACIK | 0.0121 | 0.0213
LVVYLSCVGCIN | 0.244 | 0.293
FSMRWTFMYWVN | 0.0968 | 0.456
FSMRWTFRNWVN | 0.0567 | 0.589
ARWRVGLWRVAS | 0.0841 | 0.67
LKMLRQKMNHQN | 0.171 | 0.683
RLIQPLHVQFLN | 0.054 | 0.61
VRGAVGGWRLVGW | 0.666 | 0.668
CTSYGYKFRTNN | 0.145 | 0.688
PSLAASFWHVVG | 0.46 | 0.691
VRGQVGGWRLVG | 0.147 | 0.677
PSLAASFWRVVN | 0.133 | 0.67
